# Publication doi:10.1101/772293
# Read-outs that look alike come from different tables or passages of the source.
# Experiments:
# angiotensin AT1 receptor [1] = biological target: angiotensin AT1 receptor (UniProt P30556); experiment: genetically encoded conformation-sensitive fluorescent biosensor
# angiotensin AT1 receptor [2] = biological target: angiotensin AT1 receptor (UniProt P30556); experiment: as above; remark: listed apart in the source
# UniProt P30556, sequence (P30556 whole entry): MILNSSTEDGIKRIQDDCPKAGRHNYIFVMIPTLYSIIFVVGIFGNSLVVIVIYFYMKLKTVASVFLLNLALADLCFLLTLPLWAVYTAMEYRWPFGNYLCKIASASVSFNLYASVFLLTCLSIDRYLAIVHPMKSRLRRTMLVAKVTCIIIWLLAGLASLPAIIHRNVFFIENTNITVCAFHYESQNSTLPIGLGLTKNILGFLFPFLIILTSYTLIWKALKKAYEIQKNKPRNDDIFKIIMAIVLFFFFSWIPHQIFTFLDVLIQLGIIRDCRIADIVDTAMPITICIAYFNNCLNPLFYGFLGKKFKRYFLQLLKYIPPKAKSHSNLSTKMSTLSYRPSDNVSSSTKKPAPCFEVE
substance,measurement,setting,value
β-arrestin2 sensor (β-arrestin2 inserted into the seventh stave of mNeonGreen) (from UniProt P32121 1-409),t1/2 of arrestin recruitment (0.693/kobs) with 32 uM AngII,angiotensin AT1 receptor [1],45 s
same,t1/2 of arrestin recruitment (0.693/kobs) with 32 uM SII,angiotensin AT1 receptor [1],84
same,t1/2 of arrestin recruitment (0.693/kobs) with 32 uM AngII,angiotensin AT1 receptor [2],44 s
